The results in this text go back to patent US20130196415.

This data set has as its system fibrin.

As for “trypsin (EC3.4.21.4, manufactured by Wako Pure Chemical Industries, Ltd.)”, the “digestion circle on fibrin-containing solid medium (fibrinolytic activity assay, protease at FLV 111, overnight at 37° C.)” value is on record as “a digestion circle was observed for trypsin”.
